Experimental data reported in patent US20250353921A1 (ASTRIA THERAPEUTICS, published 2025).

T1: human OX40 (TNFRSF4, CD134) on cells (human, UniProt P43489 29-277)
T1 sequence: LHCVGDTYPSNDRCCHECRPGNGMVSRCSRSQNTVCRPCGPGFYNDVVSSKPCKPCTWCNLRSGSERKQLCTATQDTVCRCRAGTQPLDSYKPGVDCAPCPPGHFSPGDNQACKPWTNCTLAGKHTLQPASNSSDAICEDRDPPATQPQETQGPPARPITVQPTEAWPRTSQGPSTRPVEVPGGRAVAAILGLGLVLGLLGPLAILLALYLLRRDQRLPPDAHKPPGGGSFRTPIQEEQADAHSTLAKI

T2: Human CD32a (167 His), Sino Biological 10374-H08H1 (human, UniProt P12318 34-218)
T2 construct: also called FcγRIIa167H
T2 sequence (looked up): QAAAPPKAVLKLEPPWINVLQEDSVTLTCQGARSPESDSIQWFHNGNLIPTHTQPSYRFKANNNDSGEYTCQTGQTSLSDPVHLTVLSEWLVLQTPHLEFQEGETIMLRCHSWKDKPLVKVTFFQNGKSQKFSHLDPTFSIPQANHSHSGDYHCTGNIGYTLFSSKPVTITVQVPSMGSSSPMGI

T3: Human CD32b, Sino Biological 10259-H08H (human, UniProt P31994 43-217)
T3 construct: also called FcγRIIb
T3 sequence (looked up): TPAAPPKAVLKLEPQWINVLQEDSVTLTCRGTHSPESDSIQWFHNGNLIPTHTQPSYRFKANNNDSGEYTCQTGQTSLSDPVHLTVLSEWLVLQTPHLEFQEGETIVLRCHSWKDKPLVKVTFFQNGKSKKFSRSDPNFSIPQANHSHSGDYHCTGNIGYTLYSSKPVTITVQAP

T4: Human CD32a (167 Arg), Sino Biological 10374-H08H (human, UniProt P12318 34-218)
T4 construct: also called FcγRIIa167R
T4 sequence (looked up): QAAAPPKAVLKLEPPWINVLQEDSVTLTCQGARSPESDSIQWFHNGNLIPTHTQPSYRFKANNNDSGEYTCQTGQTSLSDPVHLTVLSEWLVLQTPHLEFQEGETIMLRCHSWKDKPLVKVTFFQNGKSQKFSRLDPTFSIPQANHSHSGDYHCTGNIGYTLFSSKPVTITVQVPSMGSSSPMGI


How the values were obtained:
[1] = target: T1, human OX40 (TNFRSF4, CD134) on cells; assay: cell-based or functional assay
[2] = target: T1, human OX40 (TNFRSF4, CD134) on cells; assay: cell-based or functional assay; remark: listed apart in the source
[3] = target: T1, human OX40 (TNFRSF4, CD134) on cells; assay: cell-based or functional assay; remark: listed apart in the source
[4] = target: T1, human OX40 (TNFRSF4, CD134) on cells; assay: flow cytometry on Jurkat-NF-κB-OX40 cells, detection with PE anti-human IgG Fc, occupancy in % of the saturating dose; in the presence of 0.07 µg/ml OX40L; time point not stated on the sheet
[5] = target: T1, human OX40 (TNFRSF4, CD134) on cells; assay: cell-based or functional assay; remark: listed apart in the source
[6] = target: T5, Human FcRn protein (Acro Biosystems, catalog NO: FCN-H52W7) (human, UniProt P55899 24-297; P61769 21-119); assay: SPR Biacore 8K+, antibody immobilised, FcRn analyte, pH 6.0; pH 6.0
T5 construct: also called huFcRn

[7] = target: T2, Human CD32a (167 His), Sino Biological …; assay: SPR Biacore 8K+, receptor captured by anti-His, antibody as analyte
[8] = target: Human CD64 (FcγRI), Sino Biological 10256-H08H (human, UniProt P12314 16-288); assay: as above
Sequence of Human CD64 (FcγRI), Sino Biological 10256-H08H (P12314 16-288 limits assumed): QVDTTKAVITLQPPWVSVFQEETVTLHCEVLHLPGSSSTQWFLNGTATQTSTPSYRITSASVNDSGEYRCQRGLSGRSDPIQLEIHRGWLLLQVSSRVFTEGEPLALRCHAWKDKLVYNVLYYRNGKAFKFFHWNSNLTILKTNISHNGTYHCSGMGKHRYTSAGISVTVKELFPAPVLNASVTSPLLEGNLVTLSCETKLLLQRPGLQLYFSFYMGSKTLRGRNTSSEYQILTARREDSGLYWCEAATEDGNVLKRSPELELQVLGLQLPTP

[9] = target: T6, Human CD16a (F176V), Sino Biological 10389-H08H1 (human, UniProt P08637 17-208); assay: as above
T6 construct: also called FcγRIIIa176V
T6 sequence (P08637 17-208 F176V limits assumed): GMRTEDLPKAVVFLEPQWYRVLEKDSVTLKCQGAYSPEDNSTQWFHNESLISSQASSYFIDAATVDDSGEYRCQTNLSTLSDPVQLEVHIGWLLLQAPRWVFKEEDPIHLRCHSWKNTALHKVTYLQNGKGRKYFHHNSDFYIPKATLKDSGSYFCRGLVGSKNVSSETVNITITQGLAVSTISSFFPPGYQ

[10] = target: T7, Human CD16b (NA2 allotype), Sino Biological 11046-H08H (human, UniProt O75015 17-200); assay: as above
T7 construct: also called FcγRIIIb
T7 sequence (O75015 17-200 N65S limits assumed): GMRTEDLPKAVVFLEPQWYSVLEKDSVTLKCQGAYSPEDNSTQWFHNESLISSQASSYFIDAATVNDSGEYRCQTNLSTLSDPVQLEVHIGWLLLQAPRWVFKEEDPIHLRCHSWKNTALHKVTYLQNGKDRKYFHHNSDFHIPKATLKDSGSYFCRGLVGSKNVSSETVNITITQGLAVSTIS

[11] = target: T8, Human CD16a (176F), Sino Biological 10389-H08H (human, UniProt P08637 17-208); assay: as above
T8 construct: also called FcγRIIIa176F
T8 sequence (P08637 17-208 limits assumed): as the sequence (P08637 17-208 F176V limits assumed) above, with V160F counted along it

[12] = target: T3, Human CD32b, Sino Biological 10259-H08H; assay: as above
[13] = target: T4, Human CD32a (167 Arg), Sino Biological …; assay: as above
[14] = target: T1, human OX40 (TNFRSF4, CD134) on cells; assay: flow cytometry on Jurkat-NF-κB-OX40 cells, detection with PE anti-human IgG Fc, occupancy in % of the saturating dose; no OX40L; time point (0 h or 5 h) not stated on the sheet
[15] = target: T1, human OX40 (TNFRSF4, CD134) on cells; assay: cell-based or functional assay; remark: listed apart in the source

| ADCC EC50, activated T cells (LDH release) [1] | ADCC EC50, regulatory T cells (LDH release) [3] | EC50 (read off the curve) [4] | Kd [6] | Kd [7] | Kd [8] | Kd [9] | Kd [10] | Kd [11] | EC50 (read off the curve) [14] | EC50, inhibition of IFNγ release [15] | EC50, inhibition of IL-2 release [15] | EC50, inhibition of IL-4 release [15] | EC50, inhibition of IL-5 release [15] | EC50, inhibition of IL-8 release [15] | EC50, inhibition of IL-10 release [15] | EC50, inhibition of IL-13 release [15] | EC50, inhibition of IL-21 release [15] | Binder | Maximum killing (%), ADCC, activated T cells [2] | Maximum killing (%), ADCC, regulatory T cells [5] | further results |
| --- | --- | --- | --- | --- | --- | --- | --- | --- | --- | --- | --- | --- | --- | --- | --- | --- | --- | --- | --- | --- | --- |
| 0.27 nM | 0.28 nM | ~0.2 nM | 102 nM | 4030 nM | 5.4 nM | 297 nM | 3630 nM | 334 nM | ~0.2 nM | 14.6 nM | 2.36 nM | 2.83 nM | 21.3 nM | 9.19 nM | 28 nM | 6.2 nM | 2.56 nM | MAB1 IgG1 (antibody, Human IgG1, kappa) heavy: not shown light: EIVLTQSPATLSLSPGERATLSCRASSSVSYMHWYQQKPGQAPRPWIYATSNRATGIPARFSGSGSGTDYTLTISSLEPEDFAVYYCQQFGAWPWTFGQGTKVEIKRTVAAPSVFIFPPSDEQLKSGTASVVCLLNNFYPREAKVQWKVDNALQSGNSQESVTEQDSKDSTYSLSSTLTLSKADYEKHKVYACEVTHQGLSSPVTKSFNRGEC | 45.6% | 61.9% | Fold diff to MAB10, ADCC EC50, activated T cells [1]: 0.37 fold; Fold diff to MAB10, maximum ADCC, activated T cells [2]: 1.31 fold; Fold diff to MAB10, ADCC EC50, regulatory T cells [3]: 8.25 fold; Fold diff to MAB10, maximum ADCC, regulatory T cells [5]: 2.27 fold; Kd [12]: 11600 nM; Kd [13]: 6140 nM; EC50, inhibition of IL-17a release [15]: 24.4 nM; EC50, inhibition of IL-22 release [15]: 9.19 nM; EC50, inhibition of IL-31 release [15]: 2.51 nM; EC50, inhibition of TNF-α release [15]: 4.1 nM; Fold diff to GBR830, IFNγ [15]: 4.6 fold; Fold diff to GBR830, IL-2 [15]: 3.4 fold; Fold diff to GBR830, IL-4 [15]: 15.8 fold; Fold diff to GBR830, IL-5 [15]: 3 fold; Fold diff to GBR830, IL-8 [15]: 6.3 fold; Fold diff to GBR830, IL-10 [15]: 2.4 fold; Fold diff to GBR830, IL-13 [15]: 11.2 fold; Fold diff to GBR830, IL-21 [15]: 18.5 fold; Fold diff to GBR830, IL-31 [15]: 11.9 fold; Fold diff to GBR830, TNF-α [15]: 10.6 fold |
| 0.13 nM | 2.25 nM | ~0.5 nM | 112 nM | 3410 nM | 6.2 nM | 330 nM | 3220 nM | 365 nM | ~0.4 nM | 66.7 nM | 7.92 nM | 44.8 nM | 63.6 nM | 58.2 nM | 66.8 nM | 69.6 nM | 47.3 nM | GBR 830 (telazorlimab) (antibody, human IgG1, kappa, IgG1; also called Antibody 830; ISB830) heavy: not shown light: EIVLTQSPATLSLSPGERATLSCRASSSVSYMHWYQQKPGQAPRPWIYATSNRATGIPARFSGSGSGTDYTLTISSLEPEDFAVYYCQQWSSNPWTFGQGTKVEIKRTVAAPSVFIFPPSDEQLKSGTASVVCLLNNFYPREAKVQWKVDNALQSGNSQESVTEQDSKDSTYSLSSTLTLSKADYEKHKVYACEVTHQGLSSPVTKSFNRGEC | 39.6% | 44.1% | Fold diff to MAB10, ADCC EC50, activated T cells [1]: 0.77 fold; Fold diff to MAB10, maximum ADCC, activated T cells [2]: 1.14 fold; Fold diff to MAB10, ADCC EC50, regulatory T cells [3]: 1.03 fold; Fold diff to MAB10, maximum ADCC, regulatory T cells [5]: 1.61 fold; Kd [12]: 7260 nM; Kd [13]: 4690 nM; EC50, inhibition of IL-31 release [15]: 29.9 nM; EC50, inhibition of TNF-α release [15]: 43.3 nM |
| 0.1 nM | 2.31 nM | ~0.3 nM | 11.5 nM | 12700 nM | 8.7 nM | 816 nM | 15600 nM | 992 nM | ~0.3 nM | 11.8 nM | 2.63 nM | 2.88 nM | 16.4 nM | 9.55 nM | 34.1 nM | 5.3 nM | 2.75 nM | MAB10 (antibody, human IgG1, kappa, MAB1 with M252Y, S254T and T256E (EU numbering) in the IgG1 Fc; also called MAB1 Heavy Chain + YTE) heavy: QVTLKESGPALVKPTQTLTLTCSFSGFSLSTSGMGVGWIRQPPGKALEWIAHIWWDDDKYYNTALKTRLTISKDTSKNQVVLTMTNMDPVDTATYYCARIDWDGFAYWGQGTLVTVSSASTKGPSVFPLAPSSKSTSGGTAALGCLVKDYFPEPVTVSWNSGALTSGVHTFPAVLQSSGLYSLSSVVTVPSSSLGTQTYICNVNHKPSNTKVDKKVEPKSCDKTHTCPPCPAPELLGGPSVFLFPPKPKDTLYITREPEVTCVVVDVSHEDPEVKFNWYVDGVEVHNAKTKPREEQYNSTYRVVSVLTVLHQDWLNGKEYKCKVSNKALPAPIEKTISKAKGQPREPQVYTLPPSRDELTKNQVSLTCLVKGFYPSDIAVEWESNGQPENNYKTTPPVLDSDGSFFLYSKLTVDKSRWQQGNVFSCSVMHEALHNHYTQKSLSLSPGK light: EIVLTQSPATLSLSPGERATLSCRASSSVSYMHWYQQKPGQAPRPWIYATSNRATGIPARFSGSGSGTDYTLTISSLEPEDFAVYYCQQFGAWPWTFGQGTKVEIKRTVAAPSVFIFPPSDEQLKSGTASVVCLLNNFYPREAKVQWKVDNALQSGNSQESVTEQDSKDSTYSLSSTLTLSKADYEKHKVYACEVTHQGLSSPVTKSFNRGEC | 34.9% | 27.3% | binding result [12]: no binding (tested: 5,000 nM highest antibody concentration); binding result [13]: no binding (tested: 5,000 nM highest antibody concentration); EC50, inhibition of IL-17a release [15]: 23.5 nM; EC50, inhibition of IL-22 release [15]: 7.03 nM; EC50, inhibition of IL-31 release [15]: 2 nM; EC50, inhibition of TNF-α release [15]: 4.2 nM; Fold diff to GBR830, IFNγ [15]: 5.7 fold; Fold diff to GBR830, IL-2 [15]: 3 fold; Fold diff to GBR830, IL-4 [15]: 15.5 fold; Fold diff to GBR830, IL-5 [15]: 3.9 fold; Fold diff to GBR830, IL-8 [15]: 6.1 fold; Fold diff to GBR830, IL-10 [15]: 2 fold; Fold diff to GBR830, IL-13 [15]: 13.1 fold; Fold diff to GBR830, IL-21 [15]: 17.2 fold; Fold diff to GBR830, IL-31 [15]: 14.9 fold; Fold diff to GBR830, TNF-α [15]: 10.3 fold |
